Assay: soluble on expression in E. coli; label from the status in PepcDB or PDB records

Sequence	soluble on expression in E. coli
MPSLFKTMAFQLKTERLELSMWEESDSVWLSKLIGERGVDIPAVDSVRNRLIEMRKKADENGISLLTIRRRDEGDFIGYCGLIIGRSTLEEPEIAYELFRSAHGKGYATEAASVVLDAAIATGRQRLWSTVGAWNIASLRVLEKIGFKRHHSTWDDERGEIVWNVRDL	not soluble
MPSLQDLYAAFRRIAPYTHRTPLLTSRLLDGLLGKRLLLKAEHLQKTGSFKARGALSKALALENPKGLLAVSSGNHAQGVAYAAQVLGVKALVVMPEDASPYKKACARAYGAEVVDRGVTAKNREEVARALQEETGYALIHPFDDPLVIAGQGTAGLELLAQAGRMGVFPGAVLAPVGGGGLLAGLATAVKALSPTTLVLGVEPEAADDAKRSLEAGRILRLEAPPRTRADGVRTLSLGERTFPILRERVDGILTVSEEALLEAERLLFTRTKQVVEPTGALPLAAVLEHGARLPQTLALLLSGGNRDFSP	soluble
MPSNPQQSSRATPDRPSGSDESVIVERIYKAVMEQRLAPKTKLSEARLCETFGVGRMRVRRALLLLSSQGIIELQSNRGAYVACPDTAEANEVFAARMLIEPPLVRQLAQSSGNIDLTILTEHIALEDAARERKERTEIIRLSGEFHTKLAQATGNKFIFRMMRELVTRTSLIVGLFGSSENASCPDDEHNNILKAIQSQDPEMAETLLISHLNHIQNGLDMDMRQVPQDDLAAILGSD	not soluble
MPSPTVTSPQVAVNDIGSSEDFLAAIDKTIKYFNDGDIVEGTIVKVDRDEVLLDIGYKTEGVIPARELSIKHDVDPNEVVSVGDEVEALVLTKEDKEGRLILSKKRAQYERAWGTIEALKEKDEAVKGTVIEVVKGGLILDIGLRGFLPASLVEMRRVRDLQPYIGKEIEAKIIELDKNRNNVVLSRRAWLEQTQSEVRSEFLNNLQKGTIRKGVVSSIVNFGAFVDLGGVDGLVHVSELSWKHIDHPSEVVQVGDEVTVEVLDVDMDRERVSLSLKATQEDPWRHFARTHAIGQIVPGKVTKLVPFGAFVRVEEGIEGLVHISELAERHVEVPDQVVAVGDDAMVKVIDIDLERRRISLSLKQANEDYTEEFDPAKYGMADSYDEQGNYIFPEGFDAETNEWLEGFEKQRAEWEARYAEAERRHKMHTAQMEKFAAAETAGRGADDQSSASSAPSEKTAGGSLASDAQLAALREKLAGSALEHHHHHH	not soluble
MPSTRCAHQMSTKKKAERVDNMIAFLKSAVQAQKEKGAQAEQAPGNAMMTSKLLEIWSVPQSTITEMRLLLTLGADPTPLFKDDFGEKTLADRIDNGSVCEECAEMYERTPIQINRSKKVDGVMALCLDGGGMRGLVSVVCLLYASRRLLGDETLPNLFDWFIGTSTGSMLALSMVNKISISECFFQYWDMKSQIFLRGSTVKRLLGDQVAVQTKNIDKVLGDCFPTQTLQECPTRLTIPALDISTAPARLHVFRNYSFTKPFGAPLNEDQDVLFREAARASSAAPTYFEPFIYGNKVLVDGSFVANYPLNVLFKEYDSFSKHQQPIHLAGVLSIGTGEPALAERKYKSGKSIRAKAMNIGHLSTLILEQVVGQDLTAVEMAQDRCHAHNIPFNRLSPKGISVRIDQIDDSKLMDMIWTTLIYLTENVHEIDQLGEMIYKLKSDPTERKRRSNTVL	not soluble
MPTASPIYDVVVVGAGISGLIATQLLDRAGLNIKCFEACSRVGGRAVSVQQSDLFLDLGATWFWLNEPLVQQLVNNLGLGTFPQAIEGDALFETLVDAPSRLRGNPIDAASGRFQAGASSLALGLAAQLKPGVLELGDPVHSLSEEDGEIVVKSSKQIVRAKHVIIAVPPALAAELIGFTLDLPADVRKAAHPQHIAVMNWAKEKYTLPTQAASAGGFGHELFQQPLGHGRIHWASTEVATEFGGHLEGAVRAGIQAALQTGFNLKSLEHHHHHH	soluble
MPVDRGAVRDAAKYLRGVRPLDPAALREYVPGQPHEAVVRQVLREQAADLGIIERADGTFVVPPEEPVGPPFNGVSALPERYERVVEAELTAAYGPDWHRGDTGDSLRETIRRFKDDYYRRNPVEYDREVALGYAVYHLAGYYAAVQYVLAGLARDGLLGHDLRVLDLGAGVGGPAVGLFDFLPDEALVEYHAVEPSAAADVLDALLAETPRNVHTTIHRETAESFQPAGEYDLVLACSVLSELDDAASVLRKYADAMAADGTALALAPADKHTSTHLRAVERAVEDDPFTVYGPTPRLWPDRRPTDSGWSFDERPAVEVPAVQSRLADASQDPGEFRHTDVRFSYSLLRRDDRRRHAVELSGDRLLALGDADDRVTDRADLLVAKLSRNLAGADANPVFRVSDGSQTTDCYAVLVRPTSLNGGIEAADYGDLVSIEDALVLWNDDEDAYNLVVDEETVVDAV	not soluble
MPVELKSFDEFVKVVERAVECRVKRGKDVVKIKARTKRYLYTLKVPPEKEAEVLEQVKAKCKNLVELLEHHHHHHLEHHHHHHLEHHHHHHLEHHHHHHLEHHHHHHLEHHHHHHLEHHHHHH	not soluble
MPVKLATALSNNLFPALDSQLRAGRHIGIEELENHVFLMDFQEVLEEFYSRYNVELIRAPEGFFYLRPRSTTLIPRSVLSELDMMVGKILCYLYLSPERLAHEGIFSQQELYEELLSLADESKLLKLVNQRSTGSDLDRQKLQEKVRTSLNRLRRLGMIYFMGNDSSKFRITESVFRFGADVRSGDDAREAQLRMIRDGEAMPVEGSLSLKDDSDDNDRTDDTAPETGEDELEHHHHHH	not soluble
MPVLHNRISNDALKAKMLAESEPRTTISFYKYFHIADPKATRDALYQLFTALNVFGRVYLAHEGINAQISVPASNVETFRAQLYAFDPALEGLRLNIALDDDGKSFWVLRMKVRDRIVADGIDDPHFDASNVGEYLQAAEVNAMLDDPDALFIDMRNHYEYEVGHFENALEIPADTFREQLPKAVEMMQAHKDKKIVMYCTGGIRCEKASAWMKHNGFNKVWHIEGGIIEYARKAREQGLPVRFIGKNFVFDERMGERISDEIIAHCHQCGAPCDSHTNCKNDGCHLLFIQCPVCAEKYKGCCSEICCEESALPPEEQRRRRAGRENGNKIFNKSRGRLNTTLGIPDPTE	not soluble
MPVNNENLTSVLDARPFELSEEQKSPLFKANLLAELVHHYQCNEMYRKFCQKNKFDPLVFDGEVADIPPIPVHIFKAIGHKLSSVSDDTIKAKLQSSATSGVPSTILLDKVTARRQTRAMARVMQEVLGPKRRPFCIMDIDPTSPNATNLGARIAAVKGYLNFASTSKYFIDADSPSAPLEFLEQKFVEHLNSLASEEPLIIFGFTFVLYHTVFKTLKDKGISFQLPKGSQVIHIGGWKKLESEKVDKITFNRDIASVLGISPDDVVDIYGFTEQMGLNYPDCKAGWKHIHAYSDVIIRDESNLEVCGPGKVGLLEFVSPLPHSYPGNVVLTDDLGVIEESLCECGKAGKRFKVIGRAKKAEVRGCGDVMSEKLTKKPSYKPLSQQEERLTIYHSPIFLDDTMLEHHHHHH	soluble
MPYTFENSEALLKNLKDAAPYISAAERFASFKGFVYDKRINIACTSEKLARAGFYSTASPEFPASAKCPFCMLEINFEQCDDPWEKHKSGSPHCEFVMIGEIEESELSFRIISNLAIRHATVRLYEELLGIVATLENGDIANENPITRADATRKLISFRSSSKLLTFDHRLATFQNFIFDKKRNVKCTSKKLAKAGWFSIANKKDKTSAKCPFCLVELDFDESDDPWEEHQKFSASCDFIKLGKLDEKKWTENEALMLGARITIMQKYEKGSWLIDELEKENRIDEIIKIRKIMIKPNHVLKRRRCSI	not soluble
MPYYTNDDNDVDDFTEYDPMPYSGGYDITVTYGRSIPPSDETCYPLSSLSGDAFEYQRPNFSSNHDSSAYDDQALKTEYSSYARPGPVGSGSDFGRKPNSGYGGRTEVEYGRKTESEHGSGYGGRIESDYVKPSYGGHEDDGDDGHKKHSGKDYDDGDEKSKKKEKEKKKDKKKDGNNSEDDEFKKKKKKEQYKEHHDDDDYDEKKKKKKDYNDDDEKKKKKHYNDDDDEKKKKHNYNDDDDEKKKKKEYHDDEDKKKKKHYDNDDDEKKKKKDHRDDDDEKKKKKDKHHKGHD	soluble
MQAKVHVKKGDTVLVASGKYKGRVGKVKAVLPRKMAVIVEGVNLVKKAVRPSPKHPQGGFVEQEAPLHASKVRPICPACGKPTRVRKKFLEDGRKIRACAKCGGSLDVEELEHHHHHH	not soluble
MQAVGLITEYNPLHNGHRYHLRQAQQLTNADCVIVVMSGDWLQRGEPAILDKWTRAKLALENGADLVIELPVFFATQPAHLFARGGIELLSALDCTSVVFGAEHPELDFQRLATAIAARQGSFTHYNATFATQFNAALQAATGVTLTAANDMLSFCYYAANQTLAHPMQLLPIKRRQADHATTTIAADSRYASGTAVRQAALAQDWAALKPVVPADTFTALTTQRLQ	not soluble
MQDEVETEVIIKDIFKQGKICFIPQYQFQSNHMDMVRLTSPEEIALLPKTSWNIHQPGEGDVREEALSTGGLDLIFLPGLGFDKDGNRLGRGKGYYDTYLKRCVQHQEVKPYTMALAFKEQICPQIPVDEHDMKVDEVLYEDSPAS	soluble
MQDLEAELERARELDVATLADAIETIGFECTRCGACCKSEADDPHTATVFPDEVRDVQAAAGAETDRDWRDVARPMPYGLDEDGAGETFEWALQADSCGDCTFYREDDDGTGACSVHGSRPLICQTYPFSVALGGTSQPMGEAVDEAGMVRAHECEGLGRDISRADAEELAGALKARAIRELEEAIDVREAYAPANPEPGATVVHDSEGAKRPDGSAYPNAAALEHHHHHH	not soluble
MQDLSFSTIENHLGPAKDRFFGDGFKHVEYSARHVNLTESEANASISLSYPANWSKKNDSGELIPHLSSIDALTISINLSQDILLNRFKSIDHCWVRRISIRAGKKPEEDLRNINAKITKESQGLDSQGDTNLIFGGNVGTMTVQLEFIIPAAHEVDTIKDSTEKNCYSLHFKNRTQFIDDIIFYSPLNAISKLFVANDNEPHFLPGGIEANYPNIINPVDSLVSHAQIAQALLYKLDGLTRGESNTLWMRNLNIIAENPAKRRAATRLLVTELKRANIVSLKGENWRVAEVAGHMNGITFSSSVAHLLPL	not soluble
MQDRQKAQDYRALLLADTPLIDVRAPIEFEQGAMPGAINLPLMMDDERAAVGTCYKRQGADAALALGHRLVCGDIRQQRLEAWKAAYQRFPNGYLCCARGGQRSHIVQRWLQETGIDCPLIEGGYKALRQTAIQATWQLAQKPILLIGGCTGSGKTQLVRQQPNGVDLEGLARHRGSSFGRTLNPQLSQASFENKLAVELLKINARQTLKRWVLEDEGRTIGANHLPECLRERMAQAPIAVVEDPFALRLERLREEYFIRMHHDFTHAYGDEAGWQAYSEYLHHGLFAIRRRLGLQRFAELTDTLDRALAEQLSSGSTDGHMAWLVPLLNEYYDPMYRYQLEKKAANIVFRGTWQDVANWLKAQ	not soluble
MQEEVNEKTVSLCITGGKVTARLLKQAMMRFLAAMEKEKAEKARKQQVKGPPDKDYHGKQSLKKLAQQNVQLSNIEITDNNIKAFEKVAKKYGIDFSLKRDKSVDPPRYFVFFKARDVDVMTAAFREFTGKTLNKTKKPSVRKKLQQAIAARSQDKQREREKSKEKQKEPTL	not soluble
MQEKTMKQMQQEVDDYISQFKEGYFSPLAMLARLTEELGELAREVNHYYGEKSKKATEQEKTVEEELGDLLFVLICFANSLGIDLQAAHDRVMDKFRTRDRDRWTRKEEGS	not soluble
MQFYAALFDFPCVPEISGPQPGNDEKSWQRDFLALTNARGTFDPWDTQTCQPCTLEGIVSRNHDAFSVADFSHNVFKYVRKNHVKTTVHWKRHWQRARMAHEFVYGEQS	not soluble
MQIFLLGLDNTTHTLDVDASTTLSAIKGVIGAGEEFSISYGSKVLSEELTLGECQIESLSTLSVNGRLLGGKVHGSLARAGKVRAQTPKVDKQDKKKKKRGRAFRRVQYTRRYVNVASGPGKKRGPNSNS	not soluble

— the DeepSol protein solubility set
